B1: 2A11.003 (antibody, human IgG1, kappa, N297G, V domains shown)
VH: QVQLVESGGGVVQPGRSLRLSCAASGFSFSSYGMHWVRQAPGKGLEWVAVIWYDGSNKYYEDSVKGRFTISRDNSKNTLFLQVNSLRAEDTAVYYCARGITIFGHGFEYWGQGTLVTVSS
VL: EIVLTQSPGTLSLSPGERATLSCRASQIFTSTYLAWYQQKPGQAPRLLIYGASSRATGIPDRFSGSGSGTDFTLTISRLEPEDFAVYYCQQYGSSPRFGQGTRLEIKR
notes: also called iPS:335965; iPS:335967
B2: 2A11.004 (antibody, human IgG1, kappa, N297G, V domains shown)
VH: QVQLVESGGGVVQPGRSLRLSCAASGFSFSSYGMHWVRQAPGKGLEWVAVIWYDGSNKYYEDAVKGRFTISRDNSKNTLFLQVNSLRAEDTAVYYCARGITIFGHGFEYWGQGTLVTVSS
VL: EIVLTQSPGTLSLSPGERATLSCRASQIFTSTYLAWYQQKPGQAPRLLIYGASSRATGIPDRFSGSGSGTDFTLTISRLEPEDFAVYYCQQYGSSPRFGQGTRLEIKR
notes: also called iPS:361158; iPS:361160
B3: 2A11.005 (antibody, human IgG1, kappa, N297G, V domains shown)
VH: QVQLVESGGGVVQPGRSLRLSCAASGFSFSSYGMHWVRQAPGKGLEWVAVIWYDASNKYYEDSVKGRFTISRDNSKNTLFLQVNSLRAEDTAVYYCARGITIFGHGFEYWGQGTLVTVSS
VL: EIVLTQSPGTLSLSPGERATLSCRASQIFTSTYLAWYQQKPGQAPRLLIYGASSRATGIPDRFSGSGSGTDFTLTISRLEPEDFAVYYCQQYGSSPRFGQGTRLEIKR
notes: also called iPS:361165; iPS:361167
B4: 6A5.004.009 (antibody, human IgG1, kappa, N297G, V domains shown)
VH: QVQLVESGGGVVQPGRSLRLSCAASGFSFSSYGMHWVRQPPGKGLEWVAAIWYDANNKYYADSVKGRFTISRDSSKNTLYLQMNSLRAEDTAVYYCARDRTIFGVVLEYWGQGTLVTVSS
VL: DIQMTQSPSSLSASVGDRVTITCQASQDITNYLNWYQQKPGKAPKLLIYDASNLEPGVPSRFSGSGSGTDFTLTISSLQPEDFATYYCQQYDDLFTFGPGTKVDIKR
notes: also called iPS:361120; iPS:361122
B5: 2G10_LC1.006 (antibody, human IgG1, kappa, N297G, V domains shown)
VH: not shown
VL: EIVMTQSPATLSVSPGERATLSCRASQSVSSNLAWYQQKPGQAPRLLIYGAATRATGIPARVSGSGSGTEFTLTISSLQSEDFAVYYCQQYNNWPLTFGGGTKVEIKR
notes: also called iPS:361192; iPS:361194
B6: 17B11.002.008 (antibody, human IgG1, lambda, N297G, V domains shown)
VH: QMQLVQSGAEVKKPGASVKVSCKASGYTFTSYDINWVRQAPGQGLEWMGWMNPNSGGTGYAQKFQGRVTMTRDTSISTAYMELSSLRSDDTAVYYCARGGDYVFGSYRPYYYYYGMDVWGQGTTVTVSS
VL: QSVLTQPPSVSAAPGQKVTISCSGSSSNIGNNYVSWYQQLPGTAPKLLIYDNNKRPSGIPDRFSGSKSGTSATLAITGLQTGDEADYYCGTFESSLSAVVFGGGTKLTVLG
B7: 2F11.002 (antibody, human IgG1, kappa, N297G, V domains shown)
VH: not shown
VL: DIQMTQSPSSLSASVGDRVTITCQASQDISNYLNWYQQKPGKAPKLLIYDASNLETGVPSRFSGSGSGTDFSLTISSLQPEDFATYYCQQYDILLTFGGGTKVEIKR
B8: 2F11.008 (antibody, human IgG1, kappa, N297G, V domains shown)
VH: not shown
VL: DIQMTQSPSSLSASVGDRVTITCQASQDISNYLNWYQQKPGKAPKLLIYDASNLETGVPSRFSGSGSGTDFSFTISSLQPEDIATYYCQQYDILLTFGGGTKVEIKR
B9: 2F11.009 (antibody, human IgG1, kappa, N297G, V domains shown)
VH: QVQLVESGGGVVQPGRSLRLSCAASGFTFSSYGMHWVRQAPGKGLEWVAVIWYDASNKYYADSVKGRFTISRDNSKNTLYLQMNSLRAEDTAVYYCARDRTIFGVVLDYWGQGTLVTVSS
VL: DIQMTQSPSSLSASVGDRVTITCQASQDISNYLNWYQQKPGKAPKLLIYDASNLETGVPSRFSGSGSGTDFSLTISSLQPEDFATYYCQQYDILLTFGGGTKVEIKR
B10: 2F11.005 (antibody, human IgG1, kappa, N297G, V domains shown)
VH: not shown
VL: DIQMTQSPSSLSASVGDRVTITCQASQDISNYLNWYQQKPGKAPKLLIYDASNLETGVPSRFSGSGSGTDFSFTISSLQPEDFATYYCQQYDILLTFGGGTKVEIKR
B11: 2F11.007 (antibody, human IgG1, kappa, N297G, V domains shown)
VH: QVQLVESGGGVVQPGRSLRLSCAASGFTFSSYGMHWVRQAPGKGLEWVAVIWYDASNKYYADAVKGRFTISSDNSKNTLYLQMNSLRAEDTAVYYCARDRTIFGVVLDYWGQGTLVTVSS
VL: DIQMTQSPSSLSASVGDRVTITCQASQDISNYLNWYQQKPGKAPKLLIYDASNLETGVPSRFSGSGSGTDFSFTISSLQPEDFATYYCQQYDILLTFGGGTKVEIKR
B12: 2F11.003 (antibody, human IgG1, kappa, N297G, V domains shown)
VH: QVQLVESGGGVVQPGRSLRLSCAASGFTFSSYGMHWVRQAPGKGLEWVAVIWYDASNKYYADAVKGRFTISSDNSKNTLYLQMNSLRAEDTAVYYCARDRTIFGVVLDYWGQGTLVTVSS
VL: DIQMTQSPSSLSASVGDRVTITCQASQDISNYLNWYQQKPGKAPKLLIYDASNLETGVPSRFSGSGSGTDFSLTISSLQPEDFATYYCQQYDILLTFGGGTKVEIKR
B13: 2F11.010 (antibody, human IgG1, kappa, N297G, V domains shown)
VH: not shown
VL: DIQMTQSPSSLSASVGDRVTITCQASQDISNYLNWYQQKPGKAPKLLIYDASNLETGVPSRFSGSGSGTDFSLTISSLQPEDFATYYCQQYDILLTFGGGTKVEIKR
B14: 2F11.004 (antibody, human IgG1, kappa, N297G, V domains shown)
VH: not shown
VL: DIQMTQSPSSLSASVGDRVTITCQASQDISNYLNWYQQKPGKAPKLLIYDASNLETGVPSRFSGSGSGTDFSLTISSLQPEDIATYYCQQYDILLTFGGGTKVEIKR
B15: 2F11.006 (antibody, human IgG1, kappa, N297G, V domains shown)
VH: QVQLVESGGGVVQPGRSLRLSCAASGFTFSSYGMHWVRQAPGKGLEWVAVIWYDASNKYYADAVKGRFTISSDNSKNTLYLQMNSLRAEDTAVYYCARDRTIFGVVLDYWGQGTLVTVSS
VL: DIQMTQSPSSLSASVGDRVTITCQASQDISNYLNWYQQKPGKAPKLLIYDASNLETGVPSRFSGSGSGTDFSLTISSLQPEDIATYYCQQYDILLTFGGGTKVEIKR
B16: 4H9.004.003 (antibody, human IgG1, kappa, N297G, V domains shown)
VH: not shown
VL: DIQMTQSPSSLSASVGDRVTITCRASQGIRNELGWYQQKPGKAPKLLIYGASSLQSGVPSRFSGSGSGTEFTLTISSLQPEDFVTYYCLQHNSYPFTFGQGTKVDVKR

biological target: T1, huGIPR ECD (human, UniProt P48546 22-139, limits assumed); test: SPR (MASS-1), captured mAb
T1 construct: Soluble ECD injected in the MASS-1 assay; also called human GIPR extracellular domain
T1 sequence: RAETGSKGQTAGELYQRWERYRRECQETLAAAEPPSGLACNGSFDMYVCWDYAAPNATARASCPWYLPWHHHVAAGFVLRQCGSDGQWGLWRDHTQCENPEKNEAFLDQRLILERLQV

Binder	binding result
B1	no binding (tested: 200 nM huGIPR ECD)
B2	no binding (tested: 200 nM huGIPR ECD)
B3	no binding (tested: 200 nM huGIPR ECD)
B4	no binding (tested: 200 nM huGIPR ECD)

biological target: T1, huGIPR ECD; test: SPR (MASS-1), captured mAb, 200 nM huGIPR ECD
Experimental: Binding assays were carried out on the immobilized goat anti-huFc antibody surface by MASS-1. The experiment was performed at 25° C. The instrument running buffer was 0.005% P20/PBS. The goat anti-huFc capture antibody was covalently attached to the sensor chip surface via standard amine coupling to flow cells channel 1-8/A&B. The anti-huGIPR antibodies were diluted in sample buffer (0.1 mg/mL BSA, 0.005% P20, PBS) to 10 nM then captured to flow cells channel B. Channel A was as a blank reference surface without injection of anti-huGIPR antibody. The captured response range of channel B was ˜100-400 RU. Then 200 nM huGIPR ECD was injected over the goat anti-huFc antibody captured anti-huGIPR antibody surfaces at flow rate 25 μL/min for 3 minutes. After a 6 minute dissociation, each surface was regenerated by injecting 10 mM Glycine, pH1.5 for 30 seconds. The sensorgrams were analyzed using MASS-1 software (AnalyserR2, version 0.1.6.5).

Binder	koff [s⁻¹]
B5	0.001

biological target: T2, human GIPR transiently expressed on 293T cells (human, UniProt P48546 22-466); test: cell-based or functional assay
T2 sequence: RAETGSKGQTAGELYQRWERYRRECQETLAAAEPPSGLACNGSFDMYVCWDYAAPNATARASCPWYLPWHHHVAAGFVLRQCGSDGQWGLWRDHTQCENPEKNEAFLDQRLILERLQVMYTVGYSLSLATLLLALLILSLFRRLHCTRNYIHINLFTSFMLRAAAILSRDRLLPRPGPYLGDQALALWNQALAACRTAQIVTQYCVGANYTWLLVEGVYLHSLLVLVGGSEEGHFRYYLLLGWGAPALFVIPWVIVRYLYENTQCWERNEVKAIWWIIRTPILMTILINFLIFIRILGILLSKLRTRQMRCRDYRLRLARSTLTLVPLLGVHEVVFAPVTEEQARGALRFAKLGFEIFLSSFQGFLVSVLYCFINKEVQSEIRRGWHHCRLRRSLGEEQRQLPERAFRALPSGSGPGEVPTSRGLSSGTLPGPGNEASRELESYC

Binder	Hu GIPR CAMP Assay (Conc. mAb @ 60% Inhibition in nM) [nM]
B5	1.04

biological target: T3, Rhesus GIPR (rhesus, UniProt F7E1R9 22-466); test: cell-based or functional assay
T3 sequence: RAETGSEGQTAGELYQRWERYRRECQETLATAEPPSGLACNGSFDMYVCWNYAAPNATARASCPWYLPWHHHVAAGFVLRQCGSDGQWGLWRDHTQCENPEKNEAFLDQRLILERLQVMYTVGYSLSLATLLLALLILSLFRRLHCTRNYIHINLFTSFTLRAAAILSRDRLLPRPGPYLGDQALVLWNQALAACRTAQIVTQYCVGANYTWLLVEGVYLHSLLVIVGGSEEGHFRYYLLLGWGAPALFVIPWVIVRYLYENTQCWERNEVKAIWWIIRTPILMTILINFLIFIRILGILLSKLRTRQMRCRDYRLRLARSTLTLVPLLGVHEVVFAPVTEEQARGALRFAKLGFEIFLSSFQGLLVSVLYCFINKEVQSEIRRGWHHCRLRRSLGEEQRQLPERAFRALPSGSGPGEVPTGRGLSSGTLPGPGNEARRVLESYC

Binder	Rhesus GIPR CAMP Assay (Conc. mAb @ 60% Inhibition in nM) [nM]
B6	7.89
B5	0.52
B4	23.3
B7	40
B8	57.4
B9	36.9
B10	68.6
B11	1.82
B12	1.79
B13	8.24
B14	35.5
B15	1.3
B16	0.5

Source: patent US20250376529A1 (Amgen, published 2025)
